Reference: US20220363757A1 (SYMPHOGEN A S, published 2022)
Residue numbers refer to the chain shown, from its start.

T1: human LAG-3 domain 1-2 Fc fusion, point mutation #43 P96A (human, UniProt P18627 23-266)
T1 construct: not shown: human IgG1 Fc, AA P101-K330
T1 sequence: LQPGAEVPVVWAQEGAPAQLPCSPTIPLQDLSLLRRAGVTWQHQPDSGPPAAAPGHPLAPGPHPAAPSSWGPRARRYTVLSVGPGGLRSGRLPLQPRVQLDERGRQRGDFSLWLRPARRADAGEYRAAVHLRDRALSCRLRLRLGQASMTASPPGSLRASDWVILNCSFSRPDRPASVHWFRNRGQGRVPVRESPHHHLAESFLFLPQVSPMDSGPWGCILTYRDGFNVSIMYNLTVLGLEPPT

T2: human LAG-3 domain 1-2 Fc fusion, point mutation #76 D143A (human, UniProt P18627 23-266)
T2 construct: not shown: human IgG1 Fc, AA P101-K330
T2 sequence: T1 sequence with A74P, D121A

T3: human LAG-3 domain 1-2 Fc fusion, point mutation #4 S45A (human, UniProt P18627 23-266)
T3 construct: not shown: human IgG1 Fc, AA P101-K330
T3 sequence: T1 sequence with S23A, A74P

T4: human LAG-3 domain 1-2 Fc fusion, point mutation #7 P49A (human, UniProt P18627 23-266)
T4 construct: not shown: human IgG1 Fc, AA P101-K330
T4 sequence: T1 sequence with P27A, A74P

T5: human LAG-3 domain 1-2 Fc fusion, point mutation #9 D52A (human, UniProt P18627 23-266)
T5 construct: not shown: human IgG1 Fc, AA P101-K330
T5 sequence: T1 sequence with D30A, A74P

T6: human LAG-3 domain 1-2 Fc fusion, point mutation #17 Q66A (human, UniProt P18627 23-266)
T6 construct: not shown: human IgG1 Fc, AA P101-K330
T6 sequence: T1 sequence with Q44A, A74P

T7: human LAG-3 domain 1-2 Fc fusion, point mutation #18 P67A (human, UniProt P18627 23-266)
T7 construct: not shown: human IgG1 Fc, AA P101-K330
T7 sequence: T1 sequence with P45A, A74P

T8: human LAG-3 domain 1-2 Fc fusion, point mutation #21 A74S (human, UniProt P18627 23-266)
T8 construct: not shown: human IgG1 Fc, AA P101-K330
T8 sequence: T1 sequence with A52S, A74P

T9: human LAG-3 domain 1-2 Fc fusion, point mutation #29 P82A (human, UniProt P18627 23-266)
T9 construct: not shown: human IgG1 Fc, AA P101-K330
T9 sequence: T1 sequence with P60A, A74P

B1: Fab fragment of antibody 15011 (Fab, V domains shown, not shown: a dimerising Fc or GST)
VH: EVQLLESGGGLVQPGGSLRLSCAASGFDFRSYAMMWVRQAPGKGLEWVGGINGEVGGSNTYYAPAVKGRATISRDNSKNTLYLQMNSLRAEDTAVYYCVKGAGACGICNDDIDAWGQGTLVTVSS
VL: SYELTQDPAVSVALGQTVRITCSGAGSYAGSYYYGWHQQKPGQAPVTVIYDNDKRPSNIPDRFSGSSSGNTASLTITGAQAEDEADYYCGSTNDNDDGGLFGSGTKVTVLG
notes: monomeric Fab made by GingisKHAN digestion of the IgG1
B2: Fab fragment of antibody 15572 (Fab, V domains shown, not shown: a dimerising Fc or GST)
VH: QLQLQESGPGLVKPSETLSLTCTVSGDSISSSSYYWGWIRQPPGKGLEWIGSIFYSGNTYYNPSLKSRVTISVDTSKNQFSLKLSSVTAADTAVYYCAREDDFLTDYYGAFDIWGQGTMVTVSS
VL: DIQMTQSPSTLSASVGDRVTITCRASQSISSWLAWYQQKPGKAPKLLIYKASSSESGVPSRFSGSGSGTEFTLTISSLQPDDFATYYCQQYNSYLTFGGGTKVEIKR
notes: as for B1
B3: Fab fragment of antibody 15532 (Fab, V domains shown, not shown: a dimerising Fc or GST)
VH: QVQLQQWGAGLLRPSETLSLTCAVYGESFSGYYWNWIRQPPGKGLEWIGEINHSGSTNYNPSLKSRVTISVDTSKTQFSLKLSSVTAADTAVYYCARGWDLLDWNDYWNEYWGQGTLVTVSS
VL: EIVLTQSPATLSLSPGERATLSCRASQSVSSYLAWYQQKPGQAPRLLIYDASNRATGIPARFSGSGSGTDFTLTISSLEPEDFAVYYCQQRSNWPLTFGGGTKVEIKR
notes: as for B1
B4: Fab fragment of antibody 15431 (Fab, V domains shown, not shown: a dimerising Fc or GST)
VH: QVQLQQSGPGLVKPSQTLSLTCAISGDSVSSNSAAWNWIRQSPSRGLEWLGRTYYRSKWYNDYAVSVKSRITINPDTSKNQFSLQLNSVTPEDTAVYYCARDDDWNDFDYWGQGTLVTVSS
VL: B3 VL
notes: as for B1

How the values were obtained:
Assay in all cases: SPR, Fab over captured mutant LAG-3-Fc;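 further: fc fusion variants captured on anti-human IgG Fc sensor, Fab injected with association then dissociation phases, KD obtained from Langmuir one-to-one fit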
[1] = target: T1, human LAG-3 domain 1-2 Fc fusion, point …
[2] = target: T2, human LAG-3 domain 1-2 Fc fusion, point …
[3] = target: T3, human LAG-3 domain 1-2 Fc fusion, point …
[4] = target: T4, human LAG-3 domain 1-2 Fc fusion, point …
[5] = target: T5, human LAG-3 domain 1-2 Fc fusion, point …
[6] = target: T6, human LAG-3 domain 1-2 Fc fusion, point …
[7] = target: T7, human LAG-3 domain 1-2 Fc fusion, point …
[8] = target: T8, human LAG-3 domain 1-2 Fc fusion, point …
[9] = target: T9, human LAG-3 domain 1-2 Fc fusion, point …

Row | Binder | KD mutant/KD wild type [1] [fold] | KD mutant/KD wild type [2] [fold] | KD mutant/KD wild type [3] [fold] | KD mutant/KD wild type [4] [fold] | KD mutant/KD wild type [5] [fold] | KD mutant/KD wild type [6] [fold] | KD mutant/KD wild type [7] [fold] | KD mutant/KD wild type [8] [fold] | KD mutant/KD wild type [9] [fold] | binding result [1] | binding result [2] | binding result [4] | binding result [5] | binding result [6] | binding result [7]
1 | B1 | 0.6 | 0.5 | 0.7 | 0.8 | 0.7 | 0.7 | 0.6 | 0.8 | 0.9 | – | – | – | – | – | –
2 | B2 | – | – | 0.6 | – | – | – | – | 0.7 | 0.8 | no binding (tested: 300 nM) | no binding (tested: 300 nM) | no binding (tested: 300 nM) | no binding (tested: 300 nM) | no binding (tested: 300 nM) | no binding (tested: 300 nM)
3 | B3 | 1.4 | 3.8 | 1.7 | 1.7 | 1.7 | 2.7 | 3.8 | 1 | 1 | – | – | – | – | – | –
4 | B4 | – | – | 0.4 | – | – | – | – | 0.8 | 1 | no binding (tested: 300 nM) | no binding (tested: 300 nM) | no binding (tested: 300 nM) | no binding (tested: 300 nM) | no binding (tested: 300 nM) | no binding (tested: 300 nM)
